Laboratory results as given in IntAct's records for PubMed 10913138.

B1: Protein S100-B (Homo sapiens), P04271 (parent)
chain: MSELEKAMVALIDVFHQYSGREGDKHKLKKSELKELINNELSHFLEEIKEQEVVDKVMETLDNDGDGECDFQEFMAFVAMVTTACHEFFEHE
partner: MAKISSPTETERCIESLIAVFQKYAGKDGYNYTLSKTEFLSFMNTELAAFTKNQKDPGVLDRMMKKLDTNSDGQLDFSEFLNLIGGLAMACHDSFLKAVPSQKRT
B2: Protein S100-B (Homo sapiens), P04271 (parent)
chain: B1 chain

Variants of: B1
Conditions: with S100A11, P31949

Row | effect of a mutation on the interaction | Variant
1 | decreasing interaction | MSELEKAMVALIDVFHQYSGREGDKHKLKKSELKELINNELSHFLEEIKEQEVVDKVMETLDNDGDGECDFQEFMAFVAMVTTACHEFAEHE

Variants of: B2
Conditions: with S100A6, P06703

Row | effect of a mutation on the interaction | Variant
2 | decreasing interaction | MSELEKAMVALIDVFHQYSGREGDKHKLKKSELKELINNELSHFLEEIKEQEVVDKVMETLDNDGDGECDFQEFMAFVAMVTTACHEFAEHE

Variants of: B2
Conditions: with S100A6, P06703
Remark: another data set of the same source

Row | effect of a mutation on the interaction | Variant
3 | decreasing interaction | MSELEKAMVALIDVFHQYSGREGDKHKLKKSELKELINNELSHFLEEIKEQEVVDKVMETLDNDGDGECDFQEFMAFVAMVTTACHEAFEHE
